Results from patent US20250340591A1, “COMPOSITION FOR PREVENTING OR TREATING INFLAMMATORY BOWEL DISEASE CONTAINING NOVEL COMPOUND” (ANYGEN CO., LTD., priority 2021, published 2025).
Square brackets hold non-standard residues; d marks the D form. Ends that are not written are not given here. * marks the point of attachment. DAMP‑2 = 1,3-bis(2-cyclohexylethyl) substitution on the histidine imidazole ring (1,3-bis(2-cyclohexylethyl)-2,3-dihydro-1H-imidazol-4-yl side chain), C1=C(*)N(CCC2CCCCC2)CN1CCC1CCCCC1; 2‑(4-tert-butyl)phenyl = 2-(4-tert-butylphenyl) substituent on the histidine imidazole (2-(4-(tert-butyl)phenyl)-1H-imidazol-4-yl), CC(C)(C)c1ccc(*)cc1; DAMP‑5 = 3-(2-cyclohexylethyl) substitution on the histidine imidazole ring (3-(2-cyclohexylethyl)-2,3-dihydro-1H-imidazol-4-yl side chain); DAMP‑3 = 1,3-diphenethyl substitution on the histidine imidazole ring (1,3-diphenethyl-2,3-dihydro-1H-imidazol-4-yl side chain); thiophene = 2-(thiophen-2-yl) substituent on the histidine imidazole (2-(thiophen-2-yl)-1H-imidazol-4-yl), c1csc(*)c1; 4‑methoxybenzhydryl = (4-methoxyphenyl)(phenyl)methyl on the His imidazole, COc1ccc(C(c2ccccc2)*)cc1; 1,2‑diphenyl = 1,2-diphenyl substituents on the histidine imidazole (1,2-diphenyl-1H-imidazol-4-yl); 1‑phenyl = 1-phenyl substituent on the histidine imidazole (1-phenyl-1H-imidazol-4-yl), c1ccc(*)cc1; 2‑phenyl = 2-phenyl substituent on the histidine imidazole (2-phenyl-1H-imidazol-4-yl), c1ccc(*)cc1; 4‑hydroxybenzhydryl = (4-hydroxyphenyl)(phenyl)methyl on the His imidazole, Oc1ccc(C(c2ccccc2)*)cc1; Tyr(3,5-(NO2)2) = N[C@@H](Cc1cc([N+](=O)[O-])c(O)c([N+](=O)[O-])c1)C(=O)O; Tyr(3-NO2) = N[C@@H](Cc1ccc(O)c([N+](=O)[O-])c1)C(=O)O; 4‑methoxylbenzhydryl = COc1ccc(C(c2ccccc2)*)cc1; Biotin = O=C1N[C@H]2[C@H](CS[C@H]2CCCCC(=O)*)N1; dPhe(4-CF3) = N[C@H](Cc1ccc(C(F)(F)F)cc1)C(=O)O; 1‑(4-tert-butyl)phenyl = CC(C)(C)c1ccc(*)cc1; Tyr(3-Cl) = N[C@@H](Cc1ccc(O)c(Cl)c1)C(=O)O; Tyr(3-NH2) = Nc1cc(C[C@H](N)C(=O)O)ccc1O; dPhe(4-Cl) = N[C@H](Cc1ccc(Cl)cc1)C(=O)O; dPhe(4-Me) = Cc1ccc(C[C@@H](N)C(=O)O)cc1; Mtt = Cc1ccc(C(c2ccccc2)(c2ccccc2)*)cc1; Trt = c1ccc(C(c2ccccc2)(c2ccccc2)*)cc1; Benzhydryl = c1ccc(C(c2ccccc2)*)cc1; 2‑cyclohexylethyl = C1CCC(CC*)CC1; Tos = Cc1ccc(S(=O)(=O)*)cc1; Octanoyl = CCCCCCCC(=O)*

B1: HKFY-1 (peptide)
peptide: H(Trt)K(Octanoyl)FY
B2: HKFY-5 (peptide)
peptide: H(Mtt)K(Octanoyl)FY
B3: HKFY-50 (peptide)
peptide: H(Trt)K(Octanoyl)FS
B4: HKFY-51 (peptide)
peptide: H(Trt)K(Octanoyl)LY-OH
B5: HKFY-52 (peptide)
peptide: H(Trt)FYDQQARF
modifications: also: C-terminal Phe amide in IUPAC name, not in sequence formula
B6: HKFY-53 (peptide)
peptide: H(Trt)GSK(Octanoyl)FY-OH
B7: HKFY-54 (peptide)
peptide: Lys(Octanoyl)-Phe-Tyr
B8: HKFY-55 (peptide)
peptide: K(Octanoyl)H(Trt)FY
B9: HKFY-6 (peptide)
peptide: H(DAMP‑3)K(Octanoyl)FY
B10: HKFY-56 (peptide)
peptide: H(Trt)K(caproic)FYDQQARF
modifications: also: C-terminal Phe amide in IUPAC name, not in sequence formula
B11: HKFY-57 (peptide)
peptide: H(2‑phenyl)K(Octanoyl)[dPhe(4-Me)]Y-OH
B12: HKFY-58 (peptide)
peptide: H(1‑phenyl)K(Octanoyl)[dPhe(4-Me)]Y-OH
B13: HKFY-59 (peptide)
peptide: H(1,2‑diphenyl)K(Octanoyl)[dPhe(4-Me)]Y-OH
B14: HKFY-60 (peptide)
peptide: H(2‑(4-tert-butyl)phenyl)K(Octanoyl)[dPhe(4-Me)]Y-OH
B15: HKFY-61 (peptide)
peptide: H(1‑(4-tert-butyl)phenyl)K(Octanoyl)[dPhe(4-Me)]Y-OH
B16: HKFY-62 (peptide)
peptide: [dH](Benzhydryl)K(Octanoyl)[dPhe(4-Me)]Y-OH
B17: HKFY-63 (peptide)
peptide: H(thiophene)K(Octanoyl)[dPhe(4-Me)]Y-OH
B18: HKFY-64 (peptide)
peptide: H(4‑methoxybenzhydryl)K(Octanoyl)[dPhe(4-Me)]Y-OH
B19: HKFY-65 (peptide)
peptide: H(4‑hydroxybenzhydryl)K(Octanoyl)[dPhe(4-Me)]Y-OH
B20: HKFY-7 (peptide)
peptide: H(DAMP‑5)K(Octanoyl)FY
B21: HKFY-66 (peptide)
peptide: H(Benzhydryl)K(Octanoyl)[dPhe(4-Me)]Y-NH2
B22: HKFY-67 (peptide)
peptide: H(Benzhydryl)K(Octanoyl)[dPhe(4-Me)][Tyr(3-Cl)]-OH
B23: HKFY-68 (peptide)
peptide: H(Benzhydryl)K(Octanoyl)[dPhe(4-Me)][Tyr(3-NO2)]-OH
B24: HKFY-69 (peptide)
peptide: H(Benzhydryl)K(Octanoyl)[dPhe(4-Me)][Tyr(3,5-(NO2)2)]
B25: HKFY-70 (peptide)
peptide: H(Benzhydryl)K(Octanoyl)[dPhe(4-Me)][Tyr(3-NH2)]-OH
B26: HKFY-72 (peptide)
peptide: Biotin-H(Benzhydryl)K(Octanoyl)[dPhe(4-Me)]Y-OH
B27: HKFY-75 (peptide)
peptide: H(Tos)K(Octanoyl)[dPhe(4-Me)]Y-OH
B28: HKFY-8 (peptide)
peptide: H(DAMP‑2)K(Octanoyl)FY
B29: HKFY-76 (peptide)
peptide: H(Trt)K(Octanoyl)[dPhe(4-CF3)]Y-OH
B30: HKFY-79 (peptide)
peptide: His(Benzhydryl)-Lys(Octanoyl)-OH
B31: HKFY-9 (peptide)
peptide: H(2‑phenylethyl)K(Octanoyl)FY-OH
modifications: not fully specified
B32: HKFY-10 (peptide)
peptide: HK(Octanoyl)FY
modifications: not fully specified (residue 1)
B33: HKFY-11 (peptide)
peptide: H(2‑cyclohexylethyl)K(Octanoyl)FY
B34: HKFY-12 (peptide)
peptide: H(Trt)K(Octanoyl)[dF]Y-OH
modifications: not fully specified; printed as His(trt)-Lys(caprylic)-d-Phe-Tyr
B35: HKFY-13 (peptide)
peptide: H(Trt)K(Octanoyl)[dPhe(4-Cl)]Y
B36: HKFY-14 (peptide)
peptide: [dH](Trt)K(Octanoyl)[dPhe(4-Cl)][dY]
B37: HKFY-15 (peptide)
peptide: H(Trt)K(Octanoyl)[dPhe(4-Cl)][dY]
B38: HKFY-2 (peptide)
peptide: Biotin-H(Trt)K(Octanoyl)FY
B39: HKFY-16 (peptide)
peptide: H(Trt)[dK](Octanoyl)[dPhe(4-Cl)]Y
B40: HKFY-17 (peptide)
peptide: HK(Octanoyl)FY
modifications: not fully specified (residue 1)
B41: HKFY-18 (peptide)
peptide: H(Fm)K(Octanoyl)FY
B42: HKFY-19 (peptide)
peptide: HK(Octanoyl)FY
modifications: not fully specified; also: His1 substituent: phenethyl or phenylpropyl
B43: HKFY-20 (peptide)
peptide: H(4‑methoxylbenzhydryl)K(Octanoyl)FY

Molecular target: T1, GPR39 (G protein coupled receptor 39) (UniProt O43194 1-453, limits assumed)
T1 sequence (looked up): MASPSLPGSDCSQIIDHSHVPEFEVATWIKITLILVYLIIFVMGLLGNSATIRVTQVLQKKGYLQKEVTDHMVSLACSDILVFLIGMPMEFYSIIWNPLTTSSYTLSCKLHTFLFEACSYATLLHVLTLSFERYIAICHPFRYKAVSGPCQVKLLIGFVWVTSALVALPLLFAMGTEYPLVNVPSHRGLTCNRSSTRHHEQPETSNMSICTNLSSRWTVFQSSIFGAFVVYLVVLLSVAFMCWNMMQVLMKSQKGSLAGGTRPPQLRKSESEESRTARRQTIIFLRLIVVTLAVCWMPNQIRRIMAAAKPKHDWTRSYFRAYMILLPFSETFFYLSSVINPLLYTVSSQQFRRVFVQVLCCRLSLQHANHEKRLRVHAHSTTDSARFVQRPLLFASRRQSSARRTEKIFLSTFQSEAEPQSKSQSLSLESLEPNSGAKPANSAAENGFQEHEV
Assay: cell-based or functional assay

In order of falling “EC50; SRE-luciferase reporter” value:
1. B43  159000 nM
2. B9  68400 nM
3. B33  57800 nM
4. B5  56400 nM
5. B32  46500 nM
6. B31  42700 nM
7. B28  33600 nM
8. B7  25900 nM
9. B42  24600 nM
10. B40  8120 nM
11. B8  2490 nM
12. B41  2290 nM
13. B2  1840 nM
14. B20  1560 nM
15. B30  970 nM
16. B16  830 nM
17. B3  700 nM
18. B13  550 nM
19. B6  340 nM
20. B11  260 nM
21. B39  240 nM
22. B14  190 nM
23. B1  150 nM
24. B38  140 nM
25. B4  120 nM
26. B37  98 nM
27. B22  43 nM
28. B34  35 nM
29. B12  20 nM
30. B15  20 nM
31. B25  20 nM
32. B36  20 nM
33. B24  15 nM
34. B35  14 nM
35. B23  13 nM
36. B21  11 nM
37. B26  11 nM
38. B18  7 nM
39. B29  7 nM
40. B17  6 nM
41. B19  3 nM
42. B27  1 nM

In order of falling “ECmax; SRE-luciferase reporter” value:
1. B14  28.2 -fold induction over basal
2. B16  28.1 -fold induction over basal
3. B39  27.9 -fold induction over basal
4. B35  25.7 -fold induction over basal
5. B37  24.7 -fold induction over basal
6. B33  22 -fold induction over basal
7. B31  21 -fold induction over basal
8. B36  20.9 -fold induction over basal
9. B34  20.7 -fold induction over basal
10. B1  20.5 -fold induction over basal
11. B43  20.3 -fold induction over basal
12. B21  20.2 -fold induction over basal
13. B40  20 -fold induction over basal
14. B19  18.3 -fold induction over basal
15. B42  18 -fold induction over basal
16. B28  17.3 -fold induction over basal
17. B8  16.8 -fold induction over basal
18. B3  16.2 -fold induction over basal
19. B2  16 -fold induction over basal
20. B18  16 -fold induction over basal
21. B20  16 -fold induction over basal
22. B27  15.9 -fold induction over basal
23. B5  15.5 -fold induction over basal
24. B9  15 -fold induction over basal
25. B38  15 -fold induction over basal
26. B10  14.9 -fold induction over basal
27. B4  14.4 -fold induction over basal
28. B29  14.2 -fold induction over basal
29. B32  14 -fold induction over basal
30. B17  13.5 -fold induction over basal
31. B24  12.2 -fold induction over basal
32. B30  11.2 -fold induction over basal
33. B23  10.8 -fold induction over basal
34. B26  10.4 -fold induction over basal
35. B22  10.2 -fold induction over basal
36. B25  10.1 -fold induction over basal
37. B41  10 -fold induction over basal
38. B15  9.88 -fold induction over basal
39. B12  9.12 -fold induction over basal
40. B11  8.5 -fold induction over basal
41. B6  8 -fold induction over basal
42. B7  7.8 -fold induction over basal
43. B13  6.76 -fold induction over basal
